Data published in the DeepSol protein solubility set.

test: soluble on expression in E. coli; label from the status in PepcDB or PDB records

Sequence | soluble on expression in E. coli
MSLKIIVIGGGAAGMSAASKAKRVNPDSEVIVVESGSYVSYAECGIPYYLQGVVGHIEDLLHYPLSEFTEKRGIKVLLHTTVTRIDTLHSSVLLNNGDVLKYDRLIIATGSRPKPIDVISDRTISIRSLESAMRARNLIEKSKDVTIVGAGVLGVELASVLAESGKNVKVISKYDRVLPQLDEDIGKIFHEYFSSRIDVQKQSSLKSAEEDRGRVKITTSVDDHECDAVIYATGIIPNSEIAVEAGIKTGDRNAILTNGHMETSEPGVYAAGDVATVRNIVTGLDEMMPLAQIANKAGRVAGSNASNSEMVFPGALGTTLVKVFDYEVGFTGINESRAKALGIPYEKTLIKAKSRANYYPGKQDIYVKIIYGKNDKRLLGAQVIGTDGAAWRLNTIATAIFGGFKVSDLFYDDLGYTPPFGPVWDSIVIAGSVSMREGHHHHHH | soluble
MKEVPMILEICVDDVAGLEAAVRGGADRIELCAALSGGGVTPSAGFMQRAATYGLPVSVMIRPRAGDFVFTHDEADVMKRDIDAARAAGLSGVVLGASRGDGSLDMALLEDLRRHADGMDATLHRAFDVAPDMEEALEAAISLGFPRILTSGGARSALEGVKTLARLSELAKGRIVIMPGAGVRPQSVQALLDSFPITEIHASCSAVPLYDPESRVAKLGFTGAGRKATDEAAVRELKTILSAHHKGGATLLEHHHHHH | soluble
MSLDVQSDIVAYDAPKKDLYEIGEMPPLGHVPKEMYAWAIRRERHGEPDQAMQIEVVETPSIDSHEVLVLVMAAGVNYNGIWAGLGVPVSPFDGHKQPYHIAGSDASGIVWAVGDKVKRWKVGDEVVIHCNQDDGDDEECNGGDPMFSPTQRIWGYETPDGSFAQFTRVQAQQLMKRPKHLTWEEAACYTLTLATAYRMLFGHKPHDLKPGQNVLVWGASGGLGSYAIQLINTAGANAIGVISEEDKRDFVMGLGAKGVINRKDFKCWGQLPKVNSPEYNEWLKEARKFGKAIWDITGKGINVDMVFEHPGEATFPVSSLVVKKGGMVVICAGTTGFNCTFDVRYMWMHQKRLQGSHFANLKQASAANQLMIERRLDPCMSEVFPWAEIPAAHTKMYRNQHKPGNMAVLVQAPRTGLRTFADVLEAGRKEGHHHHHH | soluble
MNFTEMTSMEPIVTESRTPIPPVTDADRKAAFGNLQGHAIHDSAINYLVLLDQLEWQRSDNTNNFSWSVNSWIGGDTDRIWLKSEGERSNGETEAAEAQLLWGHAVGPWWDLVAGVRQDFRPASARTWAAVGFQGLALYNFESEITGFVSNGGKAALRLGGEYDVLLTNRLILQPSYEVNFYSQDDESRGRGRGLTDTELGLRLRYEIRREFAPYIGVSWNQLYGKTSDMAKREGEKDHQVVFLAGARIWFLEHHHHHH | not soluble
TNHHQRALSYLQYGLDQGEGFIVITGPIGTGKTTIARNLLANIADENIVAAQLVTTKLTPNELLDLVAAEFKITVTGNSKADVLQSIEKFLINLNKQGKRALLLVDEAQNLPVETVEELRMLSNFQLDNKPLIQSFLLGQEELKAIISAPDMEQFRQRIIASAHLKP | not soluble
MAKPPPGKSSGRGSINDDEGKIEVESGDIPHVTDTEIKDAAEKVRETAVSKGKSERDKAEGDYTIMNPDSMIRPDFASDEEIEEQAKWIPGRFEPYITPNPLDIETLVKRADTIATVFNCSGNNLTDSRLSGAYEIAMTRSDEWEGKAGENFEKYMASLPTIMGNHGKVANMLQIEAQKMIELYKNRRKGAKDIADQAVKAIEAIDDSKGEGLE | not soluble
MGSDKIHHHHHHMTDSDLWIQVSDVRKHYAIGKSGLSDALVSAQSSANTGPGEKIAVDGISLTIRNGERLGIVGRNGAGKSTLLHMVAGLSAPTAGKIDVHGRVTAIMTLGLGLREHASGRENIYIDGEVQGKSRVEIDAVIDEIIEFAELGEFIDMPVRTYSTGMKSRLAFAMISCLEPEILIIDEALSAGDAKFSAKATRKIQEICAKGRIVILVSHSMASIQSMCNRCLWIDQGKIVMDGLPDQVCKAYIDAVRSEDEAKLLERFRDEASTRFSLDGWDVDALYVLQGDTATQRVLLEAGEDALIRTKIQVPTGCEEAQLVMSVTRLDGLVVTQRRIALDKYTEAGVARVQFAMRPLVLGQGVYRLEIAAELGQALVASRSMIFEVFVRQPPTGGVPMLLYPSEATASLLS | not soluble
MGSDKIHHHHHHAETVVVRFGLFAESIPVADLQKAAETGEFPSSLNLFTRRLSEQQRRTLIGALRMRVPLNVVTISRLLNTQIGTTILNDLSRAVVRKDQSGAKALRASLVLGSTAPQGLSILSFITAYPSRSLEINLPQAFQVAGSLNNAFWRTQQFMLAISPQLDPAKPQISIPFDPSQPGNAQVQVLKLNLNDQKRNRQIPADIYWSTSATQEKPVIIYSHGMGSVRTDLHYLAEHLASHGYIFVALEHPGSNQANTDLATKGKVRLLEPQEFLNRPQDVSFVLDVLEKLNQTTGNPLQGKLATNNTMVIGYSFGGGTALSLAGAELQIAGIRERCQNKLTILSLGETIQCVAQELPEKTYQLRDNRIKQAIALTPTTSLMFGETGLTKVQIPTLIVAASADKTTPALTEQILGFSKIPSPKWLVGIIGGTHLSVKDPSTTLDQVDKPNTPLTGGEIVGEQATDVRQFVKAIALAMVAQLTPEAEKYAVFLTPDYAQLASTESFPFRIVTEIPPQAIPIGKQ | not soluble
MRPEELTKRFNEFSLWMTEEGVEQMSSYRNTNWEALKTELGKLPTLRHSCKNHVPQLVKEFCLEKRRYGVNPMYVHFLFCYYKKNIEDTRGRLEDDKETLEEIQRTHDELNVKFEELNKVKTFIKKQKESKGNVYLPNEYTEKHRLQNTIDNLKDKIQILVSTRNEQLWDFDNIPDGFQPMLELHHLKKDQVVYFVEKYLQRYTLGNKHKEIQLIVGKGSHSIDNDSAIQRKIRRNYAENVRSHPKNYGILLLKVP | not soluble
MMVYQRPVFTVISLLRIRNREEAKLVLIGAVVVYRNFVEQTLADAQKNWVKSLVLYDDPGDAVTGILTWFSRYACLHGPRLGPLDTIAVNDNPLYIYCPRRKLEEYAKERIVSFHSEIGSVVCSMSPFDAGVTREKVRYGHNLISPGSCLLPDALEAYVAFLPSKSFLKLPYSVYEVHNDRYVHKFFALLPGSRFHFEVVAVGLAYPAAKKRPSGLGILRCCFTGKTNTCLLEHHHHHH | soluble
MNVLIVDDEPLARERLSRMVNEIEGYRVLEDSASNGEEALALIEKHKPDVVLLDIRMPGIDGLQVAAKLCEREAPPAVVFCTAHDEFALEAFQVSAVGYLVKPVRAEHLIEALKKAERPNRVQLAAMTRPAAESGSGPRTHISARTRKGIELIPLDQVIYFIADHKYVTLRHEGGEVLLDEPLKALEDEFGDRFVRIHRNALVARKRIESMKRTPVGHFELFLRGLNGDALIVSRRHVAGVRKMMQQL | soluble
MSDSSSSDGEDNQKFLGNRKKNLTKKKVVTEEIEKDDEEDVKEKSFAELGVSQPLCDACQRLGWMKPSKIQQAALPHALQGKDVIGLAETGSGKTGAFAIPVLQSLLDHPQAFFCLVLTPTRELAFQIGQQFEALGSGIGLIAAVIVGGVDMAAQAMALARRPHIIVATPGRLVDHLENTKGFNLKALKFLIMDEADRILNMDFEVELDKILKVIPRERRTYLFSATMTKKVSKLERASLRDPARVSVSSRYKTVDNLKQHYIFVPNKYKETYLVYLLNEHAGNSAIVFCATCATTMQIAVMLRQLGMQAVPLHGQMSQEKRLGSLNKFKSKAREILVCTDVAARGLDIPHVDMVINYDMPSQSKDYVHRVGRTARAGRSGIAITVVTQYDVEAYQKIEANLGKKLDEYKCVENEVMVLVERTQEATENARIEMKEMDEKKKSGKKRRQNDDFGDTEESGGRFKMGIKSMGGRGGSGGGRGGKKKKMSK | soluble
MSRDNQEIKAPEESSAEEQKEMDDKVTSPEKAEEIKLKSRYPNIGPKPGGSDFLRKRLQKGQKYFDSGDYNMAKAKMKNKQLPTAAPDKTEVTGDHIPTPQDLPQRKPSLVASKLAG | soluble
ALSGGFIKGFAHLGVIQALLEHDIKPDIISGVSAGALAGVFYADGNEPYRVLDYFSGHKFQDLTKLVIPKVGLFALGEFIDFLKSNLKAQKLEDLKLPLIITATDLDHGRSMHFHKGNIAERVAASCCMPVLFTPVKIGNTHYVDGGLLMNLPVSTIRNECEKVVAVNVSPLMAEKYKMNIVSIAMRSYHFMFRANTFPERDNCDLLIEPYNLEGYSNTELEKAEEIFEQGYNTASE | not soluble
MGHHHHHHSHMNPLKNIKCTKCPEVFQGVEKLVFHMRAQHFIFMCPRCGKQFNHSSNLNRHMNVHRGVKSHSCGICGKCFTQKSTLHDHLNLHSGARPYRCSYCDVRFAHKPAIRRHLKEQHGKTTAENVL | soluble
MSSIASNTFTKTVESVPVDIKYDSDKYFISGYSYDAEVYLTATTQLALTTETTSDTRHFKLVADLSNFGPGTSHVPIQVKNLPDGMSAQVSPSTLTATIGKKASKTFDVVANITPDKLANGYEVKKVSLDETKVEVTSSEDIINQIDHVQAVLEGDDNLSDDYDGNLVLQAVSSNGTILASSISPAKVHAKISLRKLSKSVPVKLELTGDKASNVSSISYSFDRGHVTIVGSQEAMDKIDSITVPVDISQVTEDTSKTLELKAEGVTVQPSTVKVNLKVTQKLEHHHHHH | soluble
MGHHHHHHSHMVGLDIDSRLIHSARQNIRHYLSEELRLPPQTLEGDPGAEGEEGTTTVRKRSCFPASLTASRGPIAAPQVPLDGADTSVFPNNVVFVTGNYVLDRDDLVEAQTPEYDVVLCLSLTKWVHLNWGDEGLKRMFRRIYRHLRPGGILVLEPQPWSSYGKRKTLTETIYKNYYRIQLKPEQFSSYLTSPDVGFSSYELVATPHNTSKGFQRPVYLFHKARSPSH | not soluble
MVSLTMVPIDALLSKEVNAFIVQHKHASVAELMLRMPVFTVDSRWIAAQIEGWQKASQKLPLWASTENIIYPIRLSMEQCSSERTAHYKSTLMSGERLVDLTGGFGVDSFYLSKSFNEVIYIEQQEDLAEIAAHNFSTLNQNNIVVKTADSDEYLKDIAEKIDVIFLDPARRKEMRKVYKLSDCEPNVVALQSFYFSKADVILIKTSPMLDITEATRQLTGIKEIHVVSVDNECKEVLYLLEKNYSGKATYICAHDYKKQLQLFSFTIAAEQAVTLSYSAPLAYLYEPNPSILKAGGFNSITQKYEVFKLHASSHLYTSASEVSDFPGRTFKIKETVGYSKKDIQAAVPGGKANIQTRNFPDSVEAIRKKTGLKDGGNIFIFATTLHDLSKVLLICEKI | not soluble
MKMDRQAQFRAREALIFEVAEQLLLENGEAGMTLDALAAELDLAKGTLYKHFQSKDELYMLLIVRNERMLLEMIQDKQKSFPEHLAFFMLHHLHHPERTVMFHQIEERLSTTGQGIYDLFQELYQVRKQRLRIIINMTEIYLQEIQSTMTVRDYLAAIWSLTHGAAAILNSSFYQRYLGSRDTLRIAYIDQALAIPKHMHEQYV | not soluble
MFISCFDMFKIGIGPSSSHTLGPMKAGKAFVDTLEERDLLDRVTRVRADVYGSLSLTGIGHATDKAIIMGLAGFEPETVDIDAMPGFLEIVASLQRLALAGGKKTVDFSRTEGIVFHNTCLQLHENGMTITAFEGDEVLLTKAYFSIGGGFIVDKEHFGLPVEDTAVVPFPYNTAEEVLAHCDREGMSIPEFAWRNEVAANGEEAVREHLAKVWKVMQSGIERGSSAEGILPGDLRVPRRAKALRERLEATSENEPLRMMSWLNMFAMAVNEENASGGRVVTSPTNGACGVLPAVLSYWDRLVKPVGEQEVIDYLLTCGVVGALYKKNASISGAEVGCQGEVGVACSMAAAGIAQLMGATPAQAFAAAEIAMEHNLGLTCDPVCGQVQVPCIERNAIAAVTSVNAANMSLQRGSTPTVSLDQVIQTMYQTGKDMDSKYRETSLGGLAKVLMPRLMPCS | not soluble
